Results taken from the DeepSol protein solubility set.

test: soluble on expression in E. coli; label from the status in PepcDB or PDB records

Soluble on expression in E. coli, not soluble:
MGSDKIHHHHHHMPKMGELTLTSVDEFDFRLLIKALGKGEKGSRALTFDEACLLLEGFAKGKATRAQMASAMMLMRVRGETTEEISGMVAGLRRTVDKDWHSLEVDIDWPVYAGKREQLPWLLLVAKLLAKQGVRVMLHGDSQALPHRRHVESCLASLNIACCTTPQMAKAALHSDNIVYVCAGDLAPVLDECRQLHQELGLRSLIQTAARCMNPTNAPISLRSYFHPGLDTVHQGICEILFEKSEYHAGSVAIFKGLQGETECNPRVATTITVVNGQTDNIAVSSLSIPTLLEGFSGAKVGQAELSSDILALLWREQEPFSADALTTLMSRTMIEQALSSMTATLAAVLLLLSRKSAMTEPNTTAIITTEQAVNLSQQCWTNRFNSTDCPLKQWRNRELLCAV, MAHHHHHHMEDAYAGLCSQSVFEPKMDFTLCINKSIKLFLKDINISKYDKNNVDNKKDVNTSDTKVIETSNDQNQNNQNDQNDQQSDILNNQHLLKENEAFLNGYLYFSRIGHNINLLLNELSSIKKDFRFLNKETRKKIKKFKQVKNKNIIYKDLLQDIKEKRKRKEIYEKLSIEIKKLDEVKKVQEKQKIEKDEINNLEHKILNIENIIKSNNDHIQETINQINKIVSENIQI, MNILGIETSCDETSAAVLSDGSVRSNIVSSQRCHTDFGGVVPELASREHERLIVSIVDAAITEANIAKNDLDVIAATAGPGLIGAVMVGLCFAEGLAWALGKPFVPVNHVEAHIFSPFISDEPGHREPKGDFVSLTVSGGHTLLSVVRQDLGYEVIGRTIDDAAGEAFDKTGKMLGLGYPAGPVIDRLAREGDSDFHRFPRALTASSQTSKSYRGNFDFSFSGLKTSVRTWLEAHDSEYVQKHQADLAASIQSAIVEVLVEKSVAAALLHKVNAISVAGGVSANSGLRSAMQAACDRHGIELFIPALAYSTDNAAMIATMAQLMIARGKYRIEDNSYGVAPFARFEAARKGAR, MKIIKGAFPVLITPMDEFQEINWNGVKQNVNYFIEQKVAGIIINGSTGEFVSLSKEERFKMVETVLKEVNGRIPVIVGTAAETTKETIEFTKHAETHGADCALIINSYYCKPKEEEIYFHFKEISNAVNIPIMLYNNPFTSGVDMSTELMLRIGKDCENVTHIKESSGDIRKARDLVRQGEGAFQVFCGSEDLVMESYLVGATGWVSVAGNVVPGLVTKMYEHFQNGELEKAWEINDAILPLCEFLEGSGKYVQIVKRSMELQGQAGGPSRYPRLGLTEEEDQKLQAIISKIAAHAAV, MDVFELTKKTLLAVISESSSSDDYLEALAEIEGLVKHEAAATSFQLMERGKVRELAVPKPEFYNKRRKFEDFQEKTVFDWKSEFNLKNAKKVERWTVEEKEKREKQRCFIEVEHYKKKEYLNFLYPGVHYCTCPYFQSTVLQKQTNWICVHILAYYFAKNFGKIERIECKSEIVGLVKKIFIRSIFLEEKK, MGSDKIHHHHHHMSNHNWTRRDFIKGVGATTAGITLSACNPSGDRSATGLTQEALTIKPVIKSSDLEKPDLIVGYVPVNDCAPFAIAWKKGFFRKYGLNVQLNREASWATSRDGLIFGRLDAAPVVSGAVTNARIGAEGARHAPLCAAMTIHRHGNAMTMNKAMWDFGLRPWYEYQEKYGDGALEAFGRDFRGYFEKQPPENKVWAVVLSSAIYEYFVRYVSAAAGVDPLKEFRVIIVPPPQMVTNVRIGAMQAYMVAEPWNTRAITGNEGIGFTFAQGKEVWLGHPDRLLGVMESFIDQYPKTYRSLVKAMIEACQYCSKPENRQEVAELITDRSFTGARPKNKNLPITKLTAPGIIGSYNYGGFDGKDRTIPAADTTIFYDIPDNLPKQPAEHSTFLWRSRSLWLMTQAARWGQIKEFPKNAEQLAEKGWRTDLYRQIAAEMGIQCPQDDYKVEPPEVFIDKKGFDPSDPVGYLNSFAIRANAPTRFFLS, MNYHVYHSIDVVNGPGTRCTLFVSGCEHNCKGCYNKSTLNPNSGHLFTKELEDKIIADLNDTRIPRRGLSLSGGDPLHPMNCESVLKLVKRVKSECENKDIWMWTGYTLSELNPTQKEIVDLIDTLIDGRFEQDKADPSLDWRGSSNQIIHTFNVLLEHHHHHH, MGSDKIHHHHHHMTRQCHPLATVVDACAPLRFAPLPDLRLRSFTRSGDQGDAGQWCRADLLAAKNAFAPVYDGFVAATRPGHRLPAATHFLRAVFREPIFLVAAGLYLTGRAPLLDASHLWFPVRADRTLGTPMLTELKVAVTADDRFAGHPETVTFPGSDDVVRAAAHAMVAAFTPVIDALSAHTRVGKRTLWGWVLDTAHFYMLNPARFLGRDAQAAWALANRLADALLEAGAVTRARPRLFPFCDNHPRGTWAVRGTCCFDYKGDPEHGYCTTCPHKCDNERRNELQEWLRNPALAP, ILYLHGGYNTLQPSPFHWRLLDKLTLNTLHEVVLPIYPKSPDYHYLETFKAIRDVYNQLVEEVGANNIVMMGDGSGGGLALSFVQSLINDNQEVPRKLFLLSPLLDATLTNPNITKTLEENDILVSRFGVHQLMKSWTNDLPLSDARISPLYGTLKGLPPIYMYGGGREILSPDMHAFTHALEECGNDVEFKEYPKMVHDFPIYPIRQSHKVLKHITKSI, MTADLPDEIDETPLDGEYAHDSSPTLLYAIKQVELAIRSHMDALLRPMGITALQYTALTVLRRRDGLSSAELARNSFVTAQTMGEMLSALERRGLVTRRVDPANRRRMLTSLTADALDLLAEYDTSICGLEEQMLADMSVRQRDAFRGYLGRCRIALAETPAH

Soluble on expression in E. coli, soluble:
MSLEITKIEVHVIGPEDKRYTWSEDIEEVYQSNTLIKIFTDEDIVGEAAIWNATYFEYDKYTAESLRHLLPILIGKDPLNREEILYDIRPRVFPQPPGAQALIDNALWDILGKKCKSPIYKILGGRRDKIKSYASTVMYNTIDEYLKVVDEMKEQGFSAVKFHTYCIPKKDLELAEAARKAFPSMSFMIDAENNYDLESSLIVAKKLEKLEFTWFEAPLPDYDFAGYKKITDSVGIKVIPSGNWVVDLQRFSEAIHNKVWSATRTDMAMMGGITNCKKAIDLSSAGGLDCEIMSWGYTLVSAANLHLMLSSDNCSYYEQPLPYNNFEFGMKDVLRTSQDGYMYAPTKPGLGMEIDWDKMMSKNIYSITCEEGKKISLVHSEGHHHHHH, MNQEVRFSRLEPEQRKALLIEATLACLKRHGFQGASVRKICAEAGVSVGLINHHYDGKDALVAEAYLAVTGRVMRLLRGAIDTAPGGARPRLSAFFEASFSAELLDPQLLDAWLAFWGAVGSIEAIGRVHDHSYGEYRALLVGVLRQLAEEGGWADFDAELAAISLSALLDGLWLESGLNPATFTPRQGVQICEAWVDGLEAGAHRRFRRAMEAC, MGHHHHHHSHMCYNRESNFANQTIDFYCYTEYNGFMTTKGANVMTEVEMKEQVQEVLDKLRPFLLRDGGDCELVDVDEGIVKLRLLGACGSCPSSTITLKAGIERALLEEVPGVVEVEQVF, AARRALIVLAHSEKTSFNYAMKEAAVEALKKRGWEVLESDLYAMNFNPIISRNDITGELKDSKNFQYPSESSLAYKEGRLSPDIVAEHKKLEAADLVIFQFPLQWFGVPAILKGWFERVLVAGFAYTYAAMYDNGPFQNKKTLLSITTGGSGSMYSLQGVHGDMNVILWPIQSGILRFCGFQVLEPQLVYSIGHTPPDARMQILEGWKKRLETVWEETPLYFAPSSLFDLNFQAGFLLMKEVQEEQKKNKFGLSVGHHLGKSIPADNQIKARK, MLYPNERKSSVHAIPYQDQLKQVQSAVDEFQKANGGLLPIQTKDMSTPLYQKYPIDFNRLAPRYIAEPPSTAFESGGDYQYVLVDVENDPTVKLIDLKMAEKIRDVKLRIQMYRQEHQYPPYKDVLSRDLFTLDEKKLGDGSSLTVTSPISGNSLPLMIDGDGEIYADYRTELASCLKKSKKTFKPGTEIQDMIWHETPFVPAFSVKYTVNDKQEPVFLENDMKKELEHHHHHH, MSLVSGFSVTLGEATSSNPSYKSAVMDYFKAKTDKDLQSADIKIVTASEVNEVSRGVTGRVYSPSQILSCAMVDLSYSDGIKVSVDTSKIRVVTPEMYASALRSSGIDRGYVVVTSPVPASGEAALAGVLKSYEIAVGEQIPEEAKRVSVEEIYLQSRLVNETNATGDRVAELFDEVKNRTQSQNLQDPADIQRVVVDVSQQMNINLTETQVQQVADSVAASQRVQGSLTEFKQRLEGVSQQVGGSGILDQIYAFLQSIYNYIMGIASPEGHHHHHH
